Data published in patent US20160159928A1 (published 2016).
Changes are numbered by the printed parent chain. In names and notes the source's numbering stands.

T1: CXCR1 (UniProt P25024 1-350, limits assumed)
T1 construct: whole, on cells; also called CXCR1 receptor; CXCR1-U2OS
T1 sequence (looked up): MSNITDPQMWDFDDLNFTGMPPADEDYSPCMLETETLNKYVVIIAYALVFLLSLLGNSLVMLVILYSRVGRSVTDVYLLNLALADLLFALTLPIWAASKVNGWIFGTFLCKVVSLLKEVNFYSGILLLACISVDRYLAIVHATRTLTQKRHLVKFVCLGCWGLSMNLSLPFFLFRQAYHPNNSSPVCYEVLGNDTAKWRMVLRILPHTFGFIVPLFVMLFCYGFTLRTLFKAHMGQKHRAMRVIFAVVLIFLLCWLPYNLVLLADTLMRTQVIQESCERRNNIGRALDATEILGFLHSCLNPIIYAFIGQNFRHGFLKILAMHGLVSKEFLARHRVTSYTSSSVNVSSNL

B1: VH4-34+CDR3-IL8_CDR1 Cow with light chain V1-51 (antibody, human IgG1, lambda)
heavy: not shown
light: QSVLTQPPSVSAAPGQKVTISCSGSSSNIGNNYVSWYQQLPGTAPKLLIYDNNKRPSGIPDRFSGSKSGTSATLGITGLQTGDEADYYCASAEDSSSNAVFGSGTTLTVLGQPKAAPSVTLFPPSSEELQANKATLVCLISDFYPGAVTVAWKADSSPVKAGVETTTPSKQSNNKYAASSYLSLTPEQWKSHRSYSCQVTHEGSTVEKTVAPTECS
B2: VH4-34+CDR3-IL8_CDR1 Cow_CDR2 Cow with light chain V1-51 (antibody, human IgG1, lambda)
heavy: not shown
light: B1 light
notes: also called BID 35
B3: VH1-69+CDR3-IL8 IgG (antibody)
VH: QVQLVQSGAEVKKPGSSVKVSCKASGGTFSSYAISWVRQAPGQGLEWMGGIIPIFGTANYAQKFQGRVTITADKSTSTAYMELSSLRSEDTAVYYCTSVHQETKKYQSPRSAKELRCQCIKTYSKPFHPKFIKELRVIESGPHCANTEIIVKLSDGRELCLDPKENWVQRVVEKFLKRAENSGSGSYTYNYEWHVDVWGQGLLVTVSSAS
light: not shown
notes: also called VH1-69 BLVCDR3IL8
B4: VH3-23+CDR3-IL8 IgG (antibody)
VH: EVQLLESGGGLVQPGGSLRLSCAASGFTFSSYAMSWVRQAPGKGLEWVSAISGSGGSTYYADSVKGRFTISRDNSKNTLYLQMNSLRAEDTAVYYCTSVHQETKKYQSPRSAKELRCQCIKTYSKPFHPKFIKELRVIESGPHCANTEIIVKLSDGRELCLDPKENWVQRVVEKFLKRAENSGSGSYTYNYEWHVDVWGQGLLVTVSSAS
light: not shown
notes: also called VH3-23 BLVCDR3IL8
B5: VH1-24+CDR3-IL8 IgG (antibody)
VH: QVQLVQSGAEVKKPGASVKVSCKVSGYTLTELSMHWVRQAPGKGLEWMGGFDPEDGETIYAQKFQGRVTMTEDTSTDTAYMELSSLRSEDTAVYYCTSVHQETKKYQSPRSAKELRCQCIKTYSKPFHPKFIKELRVIESGPHCANTEIIVKLSDGRELCLDPKENWVQRVVEKFLKRAENSGSGSYTYNYEWHVDVWGQGLLVTVSSAS
light: not shown
notes: also called VH1-24 BLVCDR3IL8
B6: VH1-46+CDR3-IL8 IgG (antibody)
VH: QVQLVQSGAEVKKPGASVKVSCKASGYTFTSYYMHWVRQAPGQGLEWMGIINPSGGSTSYAQKFQGRVTMTRDTSTSTVYMELSSLRSEDTAVYYCTSVHQETKKYQSPRSAKELRCQCIKTYSKPFHPKFIKELRVIESGPHCANTEIIVKLSDGRELCLDPKENWVQRVVEKFLKRAENSGSGSYTYNYEWHVDVWGQGLLVTVSSAS
light: not shown
notes: also called VH1-46 BLVCDR3IL8
B7: VH4-34+CDR3-IL8 IgG (BLV1H12 light chain) (antibody)
VH: QVQLQQWGAGLLKPSETLSLTCAVYGGSFSGYYWSWIRQPPGKGLEWIGEINHSGSTNYNPSLKSRVTISVDTSKNQFSLKLSSVTAADTAVYYCTSVHQETKKYQSPRSAKELRCQCIKTYSKPFHPKFIKELRVIESGPHCANTEIIVKLSDGRELCLDPKENWVQRVVEKFLKRAENSGSGSYTYNYEWHVDVWGQGLLVTVSSAS
light: not shown
notes: also called VH4-34 BLVCDR3IL8
B8: VH4-4+CDR3-IL8 IgG (antibody)
VH: QVQLQESGPGLVKPSETLSLTCTVSGGSISSYYWSWIRQPAGKGLEWIGRIYTSGSTNYNPSLKSRVTMSVDTSKNQFSLKLSSVTAADTAVYYCTSVHQETKKYQSPRSAKELRCQCIKTYSKPFHPKFIKELRVIESGPHCANTEIIVKLSDGRELCLDPKENWVQRVVEKFLKRAENSGSGSYTYNYEWHVDVWGQGLLVTVSSAS
light: not shown
notes: also called VH4-4 BLVCDR3IL8
B9: BLV1H12 IgG (antibody)
VH: QVQLRESGPSLVKPSQTLSLTCTASGFSLSDKAVGWVRQAPGKALEWLGSIDTGGNTGYNPGLKSRLSITKDNSKSQVSLSVSSVTTEDSATYYCTSVHQETKKYQSCPDGYRERSDCSNRPACGTSDCCRVSVFGNCLTTLPVSYSYTYNYEWHVDVWGQGLLVTVSSAS
light: not shown
notes: also called ULcowV
B10: VH4-34+CDR3-IL8_CDR1 Cow_CDR2 Cow with light chain V1-51 S2A, T5N, P8S, A12G, A13S, P14L (antibody)
VH: QVQLQQWGAGLLKPSETLSLTCTASGFSLSDKAVGWIRQPPGKGLEWLGSIDTGGNTGYNPSLKSRVTISVDTSKNQFSLKLSSVTAADTAVYYCTSVHQETKKYQSPRSAKELRCQCIKTYSKPFHPKFIKELRVIESGPHCANTEIIVKLSDGRELCLDPKENWVQRVVEKFLKRAENSGSGSYTYNYEWHVDVWGQGLLVTVSSAS
light: B1 light with S2A, T5N, P8S, A12G, A13S, P14L
notes: also called BID 36; VH4-34 MutB IL-8 CDR1cow CDR2cow
B11: VH4-34+CDR3-IL8_CDR1 Cow with light chain V1-51 CDR2 DNN to GDT (antibody)
VH: B10 VH with L48I, S50E, D52N, T53H, G54S, N56S, G58N
light: B1 light with D51G, N52D, N53T
B12: VH4-34+CDR3-IL8_CDR1 Cow with light chain V1-51 S2A, T5N, P8S, A12G, A13S, P14L & DNN to GDT (antibody)
VH: B10 VH with L48I, S50E, D52N, T53H, G54S, N56S, G58N
light: B1 light with S2A, T5N, P8S, A12G, A13S, P14L, D51G, N52D, N53T
B13: VH4-34+CDR3-IL8_CDR1 Cow with light chain V1-51 CDR2 DNNKRP to GDTSRA (antibody)
VH: B10 VH with L48I, S50E, D52N, T53H, G54S, N56S, G58N
light: B1 light with D51G, N52D, N53T, K54S, P56A
B14: VH4-34+CDR3-IL8_CDR1 Cow_CDR2 Cow with light chain V1-51 CDR2 DNNKRP to GDTSRA (antibody)
VH: B10 VH
light: B1 light with D51G, N52D, N53T, K54S, P56A
B15: VH4-34+CDR3-IL8_CDR1 Cow_CDR2 Cow with light chain V1-51 CDR1 I29V, N32G (antibody)
VH: B10 VH
light: B1 light with I29V, N32G
B16: VH4-34+CDR3-IL8_CDR1 Cow with light chain V1-51 S2A, T5N, P8S, A12G, A13S, P14L (antibody)
VH: B10 VH with L48I, S50E, D52N, T53H, G54S, N56S, G58N
light: B1 light with S2A, T5N, P8S, A12G, A13S, P14L
notes: also called BID 34
B17: VH4-34+CDR3-IL8_CDR1 Cow_CDR2 Cow with light chain V1-51 CDR2 DNN to GDT (antibody)
VH: B10 VH
light: B1 light with D51G, N52D, N53T
B18: VH4-34+CDR3-IL8_CDR1 Cow with light chain V1-51 CDR1 I29V, N32G (antibody)
VH: B10 VH with L48I, S50E, D52N, T53H, G54S, N56S, G58N
light: B1 light with I29V, N32G
B19: BLV1H12+CDR3-IL8 heavy chain with BLV1H12 light chain (SEQ ID NO: 412) (antibody, human IgG1)
heavy: not shown
light: QAVLNQPSSVSGSLGQRVSITCSGSSSNVGNGYVSWYQLIPGSAPRTLIYGDTSRASGVPDRFSGSRSGNTATLTISSLQAEDEADYFCASAEDSSSNAVFGSGTTLTVLGQPKSPPSVTLFPPSTEELNGNKATLVCLISDFYPGSVTVVWKADGSTITRNVETTRASKQSNSKYAASSYLSLTSSDWKSKGSYSCEVTHEGSTVTKTVKPSECS
B20: VH4-34+CDR3-IL8_CDR1 Cow IgG (BLV1H12 light chain) (antibody)
VH: B10 VH with L48I, S50E, D52N, T53H, G54S, N56S, G58N
light: not shown
notes: also called VH4-34 + CDR3-IL8 + Cow CDR1
B21: VH4-34+CDR3-IL8_CDR2 Cow IgG (BLV1H12 light chain) (antibody)
VH: B7 VH with I48L, E50S, N52D, H53T, S54G, S56N, N58G
light: not shown
notes: also called VH4-34 + CDR3-IL8 + Cow CDR2
B22: VH4-34+CDR3-IL8_CDR2 E50S IgG (BLV1H12 light chain) (antibody)
VH: B7 VH with E50S
light: not shown
notes: also called VH4-34 + CDR3-IL8 + E50S
B23: VH4-34+CDR3-IL8_CDR1 G31D, Y32K IgG (BLV1H12 light chain) (antibody)
VH: B7 VH with G31D, Y32K
light: not shown
notes: also called VH4-34 + CDR3-IL8 + E31D, Y32K

target: T1, CXCR1; assay: flow cytometry; CXCR1-U2OS over parental U2OS cells

Q: For B1, which “CXCR1/Parental Ratio” value is on record?
A: The value was 2.4.

Q: How did the “CXCR1/Parental Ratio” value turn out when B2 was run?
A: Its value is 3.1.

target: T1, CXCR1; assay: flow cytometry; fluorescence on CXCR1-U2OS over parental U2OS cells
Description: (§1) Briefly, a cell line expressing functionally validated CXCR1 derived from U2OS cells was obtained from DiscoveRx and cultured per manufacturer's instructions (Cat#93-0226C3, DiscoveRx Corporation, Freemont, Calif.). The parental cell line U2OS was obtained from ATCC and cultured under the same conditions as the CXCR1 cells. Cell culture supernatants were then tested for binding to cells by flow cytometry. The adherent U2OS or CXCR1-U2OS cells were dissociated with Accutase (Innovative Cell Technologies, Inc., San Diego, Calif.), neutralized with an equal volume of media containing 10% serum, centrifuged at 1000 g, and resuspended in PBS with 2% BSA. Next, cells were dispensed into microtiter plates to achieve between 30,000 to 300,000 cells per well, centrifuged again, and resuspended in cell culture supernatant containing expressed IgG, or a dilution of IgG-containing cell culture supernatant. A fluorescent-conjugated anti-Human Fc antibody was used to detect binding of the expressed antibody to cells.

Q: For B3, which “Ratio of CXCR1/Parental” value is on record?
A: The value was 4.

Q: For B4, which “Ratio of CXCR1/Parental” value is on record?
A: The value was 2.7.

Q: With B5 as the binder, how does the “Ratio of CXCR1/Parental” value read?
A: The value was 4.3.

Q: For B6, which “Ratio of CXCR1/Parental” value is on record?
A: The value was 1.1.

Q: B7 was tested. Which “Ratio of CXCR1/Parental” value did it give?
A: The value was 9.3.

Q: How did the “Ratio of CXCR1/Parental” value turn out when B8 was run?
A: Its value is 3.1.

Q: For B9, which “Ratio of CXCR1/Parental” value is on record?
A: Its value is 1.9.

target: T1, CXCR1; assay: flow cytometry, IgG 10 nM, 2% BSA in PBS plus 2 ug/ml heparin sulfate
Description: Transfections and ELISA were carried out as described above, and flow cytometry was used to evaluate CXCR1 binding specificity as previously described, with the modification that cells were resuspended in 2% BSA in PBS plus 2 ug/ml Heparin sulfate, and IgGs were normalized to 10 nM during incubation on cells.

Q: B1 was tested. Which “CXCR1 specificity (CXCR1/parental ratio)” value did it give?
A: The value was 7.2.

Q: Which “CXCR1 specificity (CXCR1/parental ratio)” value does the source give for B10 here?
A: The value was 12.2.

Q: B2 was tested. Which “CXCR1 specificity (CXCR1/parental ratio)” value did it give?
A: Its value is 11.1.

Q: Which “CXCR1 specificity (CXCR1/parental ratio)” value does the source give for B11 here?
A: The value was 5.6.

Q: With B12 as the binder, how does the “CXCR1 specificity (CXCR1/parental ratio)” value read?
A: The value was 6.8.

Q: For B13, which “CXCR1 specificity (CXCR1/parental ratio)” value is on record?
A: The value was 8.

Q: With B14 as the binder, how does the “CXCR1 specificity (CXCR1/parental ratio)” value read?
A: Its value is 6.9.

Q: For B15, which “CXCR1 specificity (CXCR1/parental ratio)” value is on record?
A: The value was 11.8.

Q: How did the “CXCR1 specificity (CXCR1/parental ratio)” value turn out when B16 was run?
A: Its value is 4.7.

Q: With B17 as the binder, how does the “CXCR1 specificity (CXCR1/parental ratio)” value read?
A: Its value is 16.7.

Q: Which “CXCR1 specificity (CXCR1/parental ratio)” value does the source give for B18 here?
A: The value was 8.9.

target: T1, CXCR1; assay: flow cytometry, IgG supernatant, fluorescent anti-human Fc; parental U2OS: 5
Description: as §1

Q: B5 was tested. Which “fluorescence on CXCR1-U2OS cells” value did it give?
A: The value was 23.

Q: B6 was tested. Which “fluorescence on CXCR1-U2OS cells” value did it give?
A: The value was 6.

Q: How did the “fluorescence on CXCR1-U2OS cells” value turn out when B9 was run?
A: The value was 9.

target: T1, CXCR1; assay: flow cytometry; secreted IgG, CXCR1-U2OS over parental U2OS cells

Q: Which “FACS CXCR1/Parental Ratio” value does the source give for B19 here?
A: Its value is 5.

target: T1, CXCR1; assay: flow cytometry; fluorescence on CXCR1-U2OS over parental U2OS cells; remark: another data set of the same source
Description: as §1

Q: With B7 as the binder, how does the “FACS CXCR1/Parental Ratio” value read?
A: The value was 9.3.

Q: For B20, which “FACS CXCR1/Parental Ratio” value is on record?
A: Its value is 2.1.

Q: With B21 as the binder, how does the “FACS CXCR1/Parental Ratio” value read?
A: The value was 8.

Q: How did the “FACS CXCR1/Parental Ratio” value turn out when B22 was run?
A: The value was 4.

Q: How did the “FACS CXCR1/Parental Ratio” value turn out when B23 was run?
A: The value was 8.1.

Q: B9 was tested. Which “FACS CXCR1/Parental Ratio” value did it give?
A: The value was 1.9.
